Molecular target: glucagon receptor (rat ventricular myocardium) (rat (endogenous in Sprague-Dawley rat right ventricle)) (UniProt P30082)
UniProt P30082, sequence (P30082 27-485): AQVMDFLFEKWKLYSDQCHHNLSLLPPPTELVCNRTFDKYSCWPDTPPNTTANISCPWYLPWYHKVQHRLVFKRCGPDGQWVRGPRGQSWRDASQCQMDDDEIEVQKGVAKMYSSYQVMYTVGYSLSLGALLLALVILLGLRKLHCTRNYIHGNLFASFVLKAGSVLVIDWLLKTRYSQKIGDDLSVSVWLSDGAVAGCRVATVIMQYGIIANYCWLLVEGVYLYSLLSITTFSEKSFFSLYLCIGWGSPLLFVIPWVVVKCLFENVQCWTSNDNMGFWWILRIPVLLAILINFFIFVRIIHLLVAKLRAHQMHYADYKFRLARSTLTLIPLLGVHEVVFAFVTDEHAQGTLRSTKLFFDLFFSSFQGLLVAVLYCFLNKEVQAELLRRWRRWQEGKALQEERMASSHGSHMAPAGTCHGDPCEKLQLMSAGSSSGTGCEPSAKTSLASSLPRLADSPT

glucagon, sequence (P01275 53-81): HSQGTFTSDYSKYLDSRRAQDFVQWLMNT

Emax of the inotropic response (percent increase in contractility over baseline) of rat right ventricle strips to glucagon (1–1000 nM), in the absence of IBMX: 40%
Emax of the inotropic response (percent increase in contractility over baseline) of rat right ventricle strips to glucagon (1–1000 nM), in the presence of 30 µM IBMX: 75%
–log EC50 of the positive inotropic response (contractility) of electrically driven rat right ventricle strips to glucagon (1–1000 nM), glucagon alone: 7.1 –log EC50
Substance: glucagon (from UniProt P01275 53-81) (ligand)

Source: article PMC10230788
